According to the RNAGym collection of RNA variant scans (doi:10.1093/molbev/msab373):

B1: Azoarcus group I ribozyme (parent)
chain: GUGCCUUGCGCCGGGAAACCACGCAAGGGAUGGUGUCAAAUUCGGCGAAACCUAAGCGCCCGCCCGGGCGUAUGGCAACGCCGAGCCAAGCUUCGGCGCCUGCGCCGAUGAAGGUGUAGAGACUAGACGGCACCCACCUAAGGCAAACGCUAUGGUGAAGGCAUAGUCCAGGGAGUGGCGAAAGUCACACAAACCGG

Variants of: B1
Test: reverse-splicing fitness (ratio to wild type); higher = more active; in vitro selection; Mg2+ level not given
Summary of the method: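 An in vitro group I ribozyme library with randomized positions was T7-transcribed and gel-purified. In triplicate, 10 pmol RNA in EPPS pH 7.5 was reacted with 50 pmoles of a 30-nt RNA substrate for 1 h at 37 °C across several added MgCl2 levels (1–48 mM), then stopped with EDTA. Products were reverse transcribed from a substrate-complementary primer, PCR-amplified and sequenced (HiSeq 4000). Fitness is a variant's read proportion after selection over that before, normalised to wild type.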

Variant | reverse-splicing fitness
C82U A120G A145C C169U U176C | 0.0127
C82U A120G A145C C169U U176G | 0.00314
C82U A120G A145C U176A | 0.0109
C82U A120G A145C U176C | 0.0121
C82U A120G A145C U176G | 0.00356
C82U A120G A145G | 0.0245
C82U A120G A145G C150A | 0.00966
C82U A120G A145G C150A C169A | 0.0113
C82U A120G A145G C150A C169A U176A | 0.018
C82U A120G A145G C150A C169A U176C | 0.0191
C82U A120G A145G C150A C169A U176G | 0.00457
C82U A120G A145G C150A C169G | 0.0101
C82U A120G A145G C150A C169G U176A | 0.0157
C82U A120G A145G C150A C169G U176C | 0.0255
C82U A120G A145G C150A C169G U176G | 0.00413
C82U A120G A145G C150A C169U | 0.0101
C82U A120G A145G C150A C169U U176A | 0.0217
C82U A120G A145G C150A C169U U176C | 0.0166
C82U A120G A145G C150A C169U U176G | 0.0051
C82U A120G A145G C150A U176A | 0.0092
C82U A120G A145G C150A U176C | 0.0182

Variant | reverse-splicing fitness
C82U A120G A145G C150A U176G | 0.00584
C82U A120G A145G C150G | 0.00813
C82U A120G A145G C150G C169A | 0.00944
C82U A120G A145G C150G C169A U176A | 0.0129
C82U A120G A145G C150G C169A U176C | 0.0121
C82U A120G A145G C150G C169A U176G | 0.00685
C82U A120G A145G C150G C169G | 0.00862
C82U A120G A145G C150G C169G U176A | 0.0089
C82U A120G A145G C150G C169G U176C | 0.0112
C82U A120G A145G C150G C169G U176G | 0.00523
C82U A120G A145G C150G C169U | 0.0101
C82U A120G A145G C150G C169U U176A | 0.0122
C82U A120G A145G C150G C169U U176C | 0.0118
C82U A120G A145G C150G C169U U176G | 0.00698
C82U A120G A145G C150G U176A | 0.00607
C82U A120G A145G C150G U176C | 0.00995
C82U A120G A145G C150G U176G | 0.00539
C82U A120G A145G C150U | 0.0208
C82U A120G A145G C150U C169A | 0.0162
C82U A120G A145G C150U C169A U176A | 0.0153
C82U A120G A145G C150U C169A U176C | 0.0154

Variant | reverse-splicing fitness
C82U A120G A145G C150U C169A U176G | 0.00486
C82U A120G A145G C150U C169G | 0.0218
C82U A120G A145G C150U C169G U176A | 0.0132
C82U A120G A145G C150U C169G U176C | 0.0207
C82U A120G A145G C150U C169G U176G | 0.00383
C82U A120G A145G C150U C169U | 0.0183
C82U A120G A145G C150U C169U U176A | 0.0207
C82U A120G A145G C150U C169U U176C | 0.0164
C82U A120G A145G C150U C169U U176G | 0.00441
C82U A120G A145G C150U U176A | 0.00967
C82U A120G A145G C150U U176C | 0.019
C82U A120G A145G C150U U176G | 0.00573
C82U A120G A145G C169A | 0.018
C82U A120G A145G C169A U176A | 0.0221
C82U A120G A145G C169A U176C | 0.0335
C82U A120G A145G C169A U176G | 0.00333
C82U A120G A145G C169G | 0.0254
C82U A120G A145G C169G U176A | 0.0223
C82U A120G A145G C169G U176C | 0.0317
C82U A120G A145G C169G U176G | 0.00333
C82U A120G A145G C169U | 0.0197

Variant | reverse-splicing fitness
C82U A120G A145G C169U U176A | 0.0237
C82U A120G A145G C169U U176C | 0.0187
C82U A120G A145G C169U U176G | 0.00378
C82U A120G A145G U176A | 0.0128
C82U A120G A145G U176C | 0.019
C82U A120G A145G U176G | 0.00485
C82U A120G A145U | 0.0237
C82U A120G A145U C150A | 0.00772
C82U A120G A145U C150A C169A | 0.00815
C82U A120G A145U C150A C169A U176A | 0.0112
C82U A120G A145U C150A C169A U176C | 0.00898
C82U A120G A145U C150A C169A U176G | 0.00335
C82U A120G A145U C150A C169G | 0.0077
C82U A120G A145U C150A C169G U176A | 0.0114
C82U A120G A145U C150A C169G U176C | 0.0133
C82U A120G A145U C150A C169G U176G | 0.0037
C82U A120G A145U C150A C169U | 0.0072
C82U A120G A145U C150A C169U U176A | 0.022
C82U A120G A145U C150A C169U U176C | 0.014
C82U A120G A145U C150A C169U U176G | 0.00395
C82U A120G A145U C150A U176A | 0.00948
